Here are results for 8 molecules from US20060154859A1 (YISSUM RESEARCH DEVELOPMENT COMPANY OF THE HEBREW …, published 2006).

As a reminder, the Kd is the free concentration of one partner at which half of the binding sites on the other are occupied at equilibrium, for simple one-to-one binding. In general, koff refers to the rate constant with which the complex falls apart. Usually kon stands for a measure of how fast the partners come together. As a reminder, the IC50 is the point on the concentration scale where inhibition reaches its midpoint. A low value points to greater potency.

Assay [1] addresses T1, recombinant chicken leptin binding domain (chLBD) (chicken).
T1 construct: The 1:1 complex with leptin has a predicted mass of 40.5 kDa, so chLBD is about 24.5 kDa
The experiment in a line: SPR (Biacore 3000), leptin mutant amine-coupled to CM5 chip, soluble chLBD as analyte, 25 C, 1:1 Langmuir fit, mean of 2 experiments. On the procedure:
(v) Kinetic measurements of leptin and leptin mutants interaction with chLBD. All experiments were performed at 25° C. using surface plasmon resonance (SPR) methodology. The kinetics and equilibrium constants for the interactions between human and chicken recombinant LBD and chicken and hLep were determined using the Biacore 3000 system (Uppsala, Sweden). Leptin (human, ovine or chicken) was immobilized in a flow cell of a research-grade CM5 (carboxymethyldextran) sensor chip using amine-coupling chemistry (Johnsson et al., 1991). The immobilization steps were carried out at a flow rate of 5 μl/min in HBS-EB buffer. The surface was activated for 7 min with a mixture of 0.05 M N-hydroxysuccinimide and 0.2 M N-ethyl-N′(3-dimetylaminopropyl)-carbodiimide hydrochloride. Leptin was injected at a concentration of 50 μg/ml in 10 mM acetate, pH 3.5, until the desired level (1000 resonance units) was achieved. 1 M ethanolamine, pH 8.5, was injected for 7 min to block the remaining activated groups. A control surface was prepared by activating the carboxyl groups and then blocking the activated groups by ethanolamine as described. […] Regeneration of the surface after each interaction was performed by using 10-μl pulse of 10 mM glycine buffer, pH 2. The experiments were controlled by the kinetics Wizard of the Biacore control software, which corrects automatically for refractive index changes and non-specific binding by subtraction of the responses obtained for the control surface from the data obtained for the interactions between LBD and leptin. The obtained binding curves were fitted to the association and dissociation phases at all LBD concentrations simultaneously using Biacore evaluation software. In all cases, the best fit was obtained for a simple bimolecular interaction (Langmuir model).
To further characterize the binding capacities of chLBD with human or ovine leptins and their mutants the surface plasmon resonance (SPR) technique using respective leptin (or leptin mutant) immobilized on a sensor chip by amine coupling and binding of soluble chLBD was employed.
Background: SPR reads the build-up and loss of mass on a sensor chip optically.

Assay [2] addresses T2, long form of human leptin receptor (human, UniProt P48357 22-1165).
T2 construct: whole, on cells; The radioreceptor assay used a homogenate of the transfected BAF/3 cells; The proliferation assay used live BAF/3 1442-CI 4 cells; also called LEPR; OB-R
T2 sequence (looked up): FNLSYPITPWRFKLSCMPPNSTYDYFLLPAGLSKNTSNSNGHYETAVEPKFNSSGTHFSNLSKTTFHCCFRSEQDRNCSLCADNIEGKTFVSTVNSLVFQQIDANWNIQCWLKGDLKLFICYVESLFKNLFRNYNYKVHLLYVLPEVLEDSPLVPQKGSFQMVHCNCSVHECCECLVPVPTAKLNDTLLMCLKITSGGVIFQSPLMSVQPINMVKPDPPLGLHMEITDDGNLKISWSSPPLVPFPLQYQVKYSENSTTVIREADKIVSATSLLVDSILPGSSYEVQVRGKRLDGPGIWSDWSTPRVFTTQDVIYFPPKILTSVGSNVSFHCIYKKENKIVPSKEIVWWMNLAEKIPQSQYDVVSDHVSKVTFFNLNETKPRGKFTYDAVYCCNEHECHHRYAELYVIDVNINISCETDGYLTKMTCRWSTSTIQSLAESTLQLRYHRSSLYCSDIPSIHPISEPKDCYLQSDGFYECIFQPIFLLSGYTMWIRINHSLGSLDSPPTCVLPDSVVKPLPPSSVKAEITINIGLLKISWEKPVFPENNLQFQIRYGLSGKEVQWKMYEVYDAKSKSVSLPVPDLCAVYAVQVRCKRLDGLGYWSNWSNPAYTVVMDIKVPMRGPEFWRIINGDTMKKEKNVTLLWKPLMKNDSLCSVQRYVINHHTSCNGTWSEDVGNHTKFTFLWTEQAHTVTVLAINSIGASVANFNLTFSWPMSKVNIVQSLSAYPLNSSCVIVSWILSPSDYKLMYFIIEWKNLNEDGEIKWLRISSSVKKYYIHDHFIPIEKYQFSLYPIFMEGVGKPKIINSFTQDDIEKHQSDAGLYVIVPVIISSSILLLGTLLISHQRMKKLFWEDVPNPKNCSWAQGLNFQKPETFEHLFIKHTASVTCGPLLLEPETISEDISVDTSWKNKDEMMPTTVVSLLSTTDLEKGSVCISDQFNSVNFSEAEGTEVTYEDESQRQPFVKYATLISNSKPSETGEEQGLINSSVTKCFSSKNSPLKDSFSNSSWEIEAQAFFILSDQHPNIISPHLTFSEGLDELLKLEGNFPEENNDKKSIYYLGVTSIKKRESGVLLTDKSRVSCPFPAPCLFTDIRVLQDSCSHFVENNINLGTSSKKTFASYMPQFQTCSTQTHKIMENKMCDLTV
In words: radioreceptor competition assay against iodinated leptin, homogenate of BAF/3 cells with long form of human leptin receptor, average of two experiments. The procedure: (vi) Binding assays. Radiolabeled ovine ¹²⁵I-leptin served as a ligand and all other nonlabeled leptins or their mutants as competitors. The experiments were conducted with homogenates of BAF/3 cells stably transfected with the long form of human leptin receptor. The cells were cultured in RPMI 1640 supplemented with 5% FCS in the -presence of IL-3 to minimize leptin receptors down-regulation till concentration of 10⁶ cells/ml was reached. Then the cells were spun and stored at −70° C. […] Each tube contained 150 μl of reaction buffer, 100 μl ¹²⁵I-human leptin (700,000-800,000 cpm) and 100 μl of different leptin solutions (providing 0-5000 ng/tube) in reaction buffer and the reaction was started by addition of 150 μl homogenate. The tubes were incubated for 18 h at room temperature. Then the leptin-receptor complex was precipitated by adding 250 μl of 1% (w/v) bovine immunoglobulin and 500 μl of 20% (w/v) polyethylene glycol. The tubes were thoroughly mixed, incubated for 30 min at 4° C., and centrifuged at 12,000 g for 15 min at 4° C. Then supernatant was carefully aspirated and the precipitates were counted in a γ counter. Human leptin was iodinated according to a protocol previously described for the iodination of hGH (Gertler et al., 1984).
Iodinated human leptin served as the ligand in all competitive experiments and the respective wild-type (WT) human and ovine leptins and their alanine mutants as competitors. Freshly prepared homogenate of BAF/3 cells stably transfected with the long form of human leptin receptor served as receptor source. Homogenate from 1.75×10⁶ cells was used per tube giving 6 to 7% specific binding.

B1: human leptin L39A/D40A/F41A mutant (ligand)
chain: VPIQKVQDDTKTLIKTIVTRINDISHTQSVSSKQKVTGAAAIPGLHPILTLSKMDQTLAVYQQILTSMPSRNVIRISNDLENLRDLLHVLAFSKSCHLPWASGLETLDSLGGVLEASGYSTEVVALSRLQGSLQDMLWQLDLSPGC
notes: Expressed with an extra Met-Ala at the N-terminus, Met removed; also called L39A/D40A/F41A (human)
For the molecule B1, in assay [1], the Kd worked out at 28.5 nM, the koff was 0.0102 s⁻¹ and the kon was determined as 358000 M⁻¹ s⁻¹. In assay [2], this molecule registered an IC50 of 5.21 nM.

B2: human leptin L39A/D40A mutant (ligand)
chain: VPIQKVQDDTKTLIKTIVTRINDISHTQSVSSKQKVTGAAFIPGLHPILTLSKMDQTLAVYQQILTSMPSRNVIRISNDLENLRDLLHVLAFSKSCHLPWASGLETLDSLGGVLEASGYSTEVVALSRLQGSLQDMLWQLDLSPGC
notes: also called L39A/D40A (human)
Turning to B2, in assay [1], the Kd was 22.9 nM, the koff was 0.0125 s⁻¹ and the kon worked out at 545000 M⁻¹ s⁻¹. The molecule also showed an IC50 in assay [2] of 4.16 nM.

B3: human leptin L39A/D40A/F41A/I42A mutant (ligand)
chain: VPIQKVQDDTKTLIKTIVTRINDISHTQSVSSKQKVTGAAAAPGLHPILTLSKMDQTLAVYQQILTSMPSRNVIRISNDLENLRDLLHVLAFSKSCHLPWASGLETLDSLGGVLEASGYSTEVVALSRLQGSLQDMLWQLDLSPGC
notes: Expressed with an extra Met-Ala at the N-terminus, Met removed; also called L39A/D40A/F41A/I42A (human)
Take B3: in assay [1], the Kd worked out at 50.3 nM, the koff turned out to be 0.0068 s⁻¹ and the kon was determined as 135000 M⁻¹ s⁻¹. The same molecule yielded an IC50 in assay [2] of 5.43 nM.

B4: human leptin F41A/I42A mutant (ligand)
chain: VPIQKVQDDTKTLIKTIVTRINDISHTQSVSSKQKVTGLDAAPGLHPILTLSKMDQTLAVYQQILTSMPSRNVIRISNDLENLRDLLHVLAFSKSCHLPWASGLETLDSLGGVLEASGYSTEVVALSRLQGSLQDMLWQLDLSPGC
notes: Expressed with an extra Met-Ala at the N-terminus, Met removed; also called F41A/I42A (human)
Turning to B4, in assay [1], the Kd was 31.8 nM, the koff turned out to be 0.0115 s⁻¹ and the association rate constant (kon) amounted to 362000 M⁻¹ s⁻¹. Besides, the IC50 in assay [2] stood at 6.82 nM.

B5: ovine leptin L39A/D40A/F41A mutant (ligand)
chain: VSIRKVQDDTKTLIKTIVTRINDISHTQSVSSKQRVTGAAAIPGLHPLLSLSKMDQTLAIYQQILASLPSRNVIQISNDLENLRDLLHLLAASKSCPLPQVRALESLESLGVVLEASLYSTEVVALSRLQGSLQDMLRQLDLSPGC
notes: also called L39A/D40A/F41A (ovine)
Consider B5, for which, in assay [1], the Kd is 13.8 nM, the koff was found to be 0.0025 s⁻¹ and the kon turned out to be 181000 M⁻¹ s⁻¹. Further, the IC50 in assay [2] came to 2.2 nM.

B6: ovine leptin L39A/D40A mutant (ligand)
chain: VSIRKVQDDTKTLIKTIVTRINDISHTQSVSSKQRVTGAAFIPGLHPLLSLSKMDQTLAIYQQILASLPSRNVIQISNDLENLRDLLHLLAASKSCPLPQVRALESLESLGVVLEASLYSTEVVALSRLQGSLQDMLRQLDLSPGC
notes: also called L39A/D40A (ovine)
For B6, in assay [1], the Kd is 24 nM, the koff stood at 0.0057 s⁻¹ and the kon was determined as 237000 M⁻¹ s⁻¹. In assay [2], the IC50 is 1.83 nM.

B7: ovine leptin F41A/I42A mutant (ligand)
chain: VSIRKVQDDTKTLIKTIVTRINDISHTQSVSSKQRVTGLDAAPGLHPLLSLSKMDQTLAIYQQILASLPSRNVIQISNDLENLRDLLHLLAASKSCPLPQVRALESLESLGVVLEASLYSTEVVALSRLQGSLQDMLRQLDLSPGC
notes: also called F41A/I42A (ovine)
As for B7, in assay [1], the Kd was determined as 12.8 nM, the koff stood at 0.0032 s⁻¹ and the kon is 250000 M⁻¹ s⁻¹. Moreover, the IC50 in assay [2] worked out at 3.44 nM.

B8: ovine leptin L39A/D40A/F41A/I42A mutant (ligand)
chain: VSIRKVQDDTKTLIKTIVTRINDISHTQSVSSKQRVTGAAAAPGLHPLLSLSKMDQTLAIYQQILASLPSRNVIQISNDLENLRDLLHLLAASKSCPLPQVRALESLESLGVVLEASLYSTEVVALSRLQGSLQDMLRQLDLSPGC
notes: also called L39A/D40A/F41A/I42A (ovine)
As for B8, in assay [1], the Kd was 29.3 nM, the koff stood at 0.0032 s⁻¹ and the kon stood at 109000 M⁻¹ s⁻¹. The molecule further displayed an IC50 in assay [2] of 1.83 nM.
